# B1: human DENND4C peptide 1189-1206 (peptide)
# peptide: AKVVQREDVETGLDPLSL
# notes: also called hDENND4C_(1189-1206); DENND4C PL motif-containing peptide; source: synthetic peptide
# Target: mVps29 (mouse (printed as mVps29), UniProt Q9QZ88 1-182)
# Test: crystal structure; hanging drop, 20 °C; 0.1 M Tris-HCl pH 8.5, 0.2 M MgCl2, 30% PEG4000; 3-fold molar excess of peptide over mVps29
# Conditions: both partners purified
binder,measurement,value
B1,binding result,binds

# — article PMC12311110, “Mapping of endosomal proximity proteomes reveals Retromer as a hub for RAB GTPase regulation” (Nature Communications, 2025)
